According to paper PMC2680271:

Assays:
[1] = test system: KorA Y84A (IncP-1 plasmid (expressed in E. coli)); assay: EMSA
[2] = test system: KorA WT (IncP-1 plasmid (expressed in E. coli)); assay: EMSA

“korAp fragment (220 bp, EcoRI-cut pSTM12)” was tested, and the K half [1] was 200 nM and the K half [2] was 300 nM.
